Test results published in paper doi:10.1101/2024.04.11.589026 (bioRxiv, 2024).
Residue numbers refer to the chain shown, from its start. Names and notes keep the numbering of the source.

B1: full-length mouse BICD2, Q921C5 1-820 (natural protein)
chain: MSAPSEEEEYARLVMEAQPEWLRAEVKRLSHELAETTREKIQAAEYGLAVLEEKHQLKLQFEELEVDYEAIRSEMEQLKEAFGQAHTNHKKVAADGESREESLIQESASKEQYYVRKVLELQTELKQLRNVLTNTQSENERLTSVAQELKEINQNVEIQRGRLRDDIKEYKFREARLLQDYSELEEENISLQKQVSVLRQNQVEFEGLKHEIKRLEEETEYLNSQLEDAIRLKEISERQLEEALETLKTEREQKNNLRKELSHYMSINDSFYTSHLQVSLDGLKFSDDTVTAEPNNDAEALVNGFEHSGLVKSSLDNKTSTPRKDGLAPPSPSLVSDLLSELHISEIQKLKQQLVQMEREKVGLLATLQDTQKQLEQARGTLSEQHEKVNRLTENLSALRRLQAGKERQTSLDNEKDRDSHEDGDYYEVDINGPEILACKYHVAVAEAGELREQLKALRSTHEAREAQHAEEKGRYEAEGQALTEKISLLEKASHQDRELLAHLEKELKKVSDVAGETQGSLNVAQDELVTFSEELANLYHHVCMCNNETPNRVMLDYYREGQGKAGRTSPEGRGRRSPVLLPKGLLATEVGRADGGTGDNSPSPSSSLPSPLSDPRREPMNIYNLIAIIRDQIKHLQAAVDRTTELSRQRIASQELGPAVDKDKEALMEEILKLKSLLSTKREQITTLRTVLKANKQTAEVALANLKSKYENEKAMVTETMMKLRNELKALKEDAATFSSLRAMFATRCDEYITQLDEMQRQLAAAEDEKKTLNSLLRMAIQQKLALTQRLELLELDHEQTRRGRSKAASKAKPASPSL
B2: CC3 of BICD1 (mouse BICD1 residues 713-802) (domain or fragment)
chain: YENEKAMVTETMTKLRNELKALKEDAATFSSLRAMFATRCDEYVTQLDEMQRQLAAAEDEKKTLNTLLRMAIQQKLALTQRLEDLEFDHE
B3: Strep-BICD2^711-800 L742A/L786A (domain or fragment)
chain: B2 chain with T13M, L32A, V44I, T66S, L76A, D84L, F87L
B4: BICD2^711-800 (CC3 domain of BICD2) (domain or fragment)
chain: B2 chain with T13M, V44I, T66S, D84L, F87L
B5: Strep-BICD2^711-800 L786A (domain or fragment)
chain: B2 chain with T13M, V44I, T66S, L76A, D84L, F87L
B6: Strep-BICD2^711-800 L742A (domain or fragment)
chain: B2 chain with T13M, L32A, V44I, T66S, D84L, F87L
B7: ScaC-AF647 (AF647-labelled ScaC-SNAP) (domain or fragment)
chain: VSNMNLDISNMGEAREGLRKDIAEVSKLLCMLEKSTASSKNLTMRLQQSDTRENEQSNHIRLLITEIESINKENDCLRQKNNQLKIKLHQLKVKLEQALARNTDLQQILPKSQAEMDNLRKQNEQLKIQLQQLQVKLQDLMSLQNKCSNLALINSVKLNYIRDIKYIALANIVIVKALASTFTEKLSKSNR
modifications: Alexa Fluor 647 on the SNAP tag
B8: ScaC passenger domain (residues 33-223), purified (domain or fragment)
chain: B7 chain
B9: BICD2N (BICD2 residues 1-400) (domain or fragment)
chain: MSAPSEEEEYARLVMEAQPEWLRAEVKRLSHELAETTREKIQAAEYGLAVLEEKHQLKLQFEELEVDYEAIRSEMEQLKEAFGQAHTNHKKVAADGESREESLIQESASKEQYYVRKVLELQTELKQLRNVLTNTQSENERLTSVAQELKEINQNVEIQRGRLRDDIKEYKFREARLLQDYSELEEENISLQKQVSVLRQNQVEFEGLKHEIKRLEEETEYLNSQLEDAIRLKEISERQLEEALETLKTEREQKNNLRKELSHYMSINDSFYTSHLQVSLDGLKFSDDTVTAEPNNDAEALVNGFEHSGLVKSSLDNKTSTPRKDGLAPPSPSLVSDLLSELHISEIQKLKQQLVQMEREKVGLLATLQDTQKQLEQARGTLSEQHEKVNRLTENLSALR
B10: ScaC[50-159] (domain or fragment)
chain: LRKDIAEVSKLLCMLEKSTASSKNLTMRLQQSDTRENEQSNHIRLLITEIESINKENDCLRQKNNQLKIKLHQLKVKLEQALARNTDLQQILPKSQAEMDNLRKQNEQLK

Tests used:
[1] = molecular target: T1, full-length mouse BICD2 (mouse), Q921C5; assay: SEC-MALS; conditions: remark: other sources report otherwise
T1 chain: B1 chain

[2] = molecular target: B8; assay: SEC
[3] = molecular target: B8; assay: pull-down
[4] = molecular target: Rab6^Q72L (GTP-locked Rab6 mutant) (human, UniProt P20340 1-208, Q72L); assay: pull-down
[5] = molecular target: BICD2-AF488 (AF488-labelled BICD2-SNAP) (mouse, UniProt Q921C5 1-820, Alexa Fluor 488 on the SNAP tag); assay: single-molecule TIRF co-migration on microtubules
full-length mouse BICD2 [6] = molecular target: T2, full-length mouse BICD2 (mouse, UniProt Q921C5 1-820); assay: SEC-MALS
SEC-MALS = molecular target: the molecule itself; assay: SEC-MALS
[7] = molecular target: BICD2C (BICD2 residues 342-800) (mouse, UniProt Q921C5 342-800); assay: SEC
full-length mouse BICD2 [8] = molecular target: T2, full-length mouse BICD2; assay: SEC

Sequence of Rab6^Q72L (GTP-locked Rab6 mutant) (P20340 whole entry Q72L): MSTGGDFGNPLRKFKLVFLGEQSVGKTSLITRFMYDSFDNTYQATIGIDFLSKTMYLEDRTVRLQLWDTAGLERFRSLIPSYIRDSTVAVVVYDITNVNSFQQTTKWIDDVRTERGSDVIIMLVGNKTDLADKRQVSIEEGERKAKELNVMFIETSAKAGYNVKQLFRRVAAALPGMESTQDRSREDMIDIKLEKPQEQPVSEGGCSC

B1 showed a stoichiometry N [1] of 2.

B2: binds [2].

B3: binds [3].

B4: binds [4]; binds [3].

B5: binds [3].

B6: binds [3].

B7: binds [5].

In the case of B8, the “stoichiometry N” value (full-length mouse BICD2 [6]) is reported as 1 ScaC chains per BICD2 chain (2:2) and the “stoichiometry N” value (SEC-MALS) is reported as 2.

B9: binds [7].

B10: binds (full-length mouse BICD2 [8]).
